The source of these data is patent US20090010935A1.

Test [1] concerns the target human epidermal growth factor receptor (EGFR), full-length wild type (human) (UniProt P00533). In words: cell-based or functional assay.
For test [2], the target named is ΔEGFR, extracellular-deleted mutant human EGFR (EGFRvIII) (human) (UniProt P00533). In words: cell-based or functional assay.

“N691 stop (cytoplasmic domain deleted rat cellular p185) (from UniProt P06494 23-690) (receptor)” came in with an EGF-induced down-regulation of cell-surface EGFR in cells co-expressing EGFR and kinase deficient Neu (flow cytometry) in test [1] of 20 to 25%.

For “N757 (Nneu K757M, ATP-binding site mutant of rat cellular p185) (from UniProt P06494 23-1257) (receptor)”, the EGF-induced down-regulation of cell-surface EGFR in cells co-expressing EGFR and kinase deficient Neu (flow cytometry) in test [1] lay in the range of 20 to 25%.

The substance “T691 stop neu (ectodomain-derived, carboxyl-terminal deletion mutant of the rat p185neu oncogene) (from UniProt P06494 23-654) (receptor)” showed a phosphorylation content of immunoprecipitated p155 ΔEGFR monomers (mAb Δ124 immunoprecipitation, PY-20 blot, scanning densitometry) in test [2] of 33.7%. Further, in test [1], the inhibition of anchorage-independent growth by T691 stop neu in U87MG parental cells lacking ΔEGFR is 75.2%; the radiation-induced apoptosis (DAPI), U87/T691 cells, 72 h after gamma-irradiation was 20%; the radiation-induced apoptosis (DAPI), U87/T691 cells, prolonged serum deprivation combined with radiation came out at 33%.

“wildtype rat cellular p185 (Nneu) (from UniProt P06494 23-1257) (receptor)”: in test [1], the co-downregulation of cellular p185 with EGFR upon EGF treatment, M1 cells (flow cytometry) is 20% and the half life of WT cellular p185 after EGF treatment (pulse-chase, densitometry) amounted to 3 h.
